From patent publication US20260125468A1 (NONA BIOSCIENCES SUZHOU, published 2026)
Positions count from the first letter of the chain named.

B1: PR008551, anti-B7H4xCD3 VH(3G11)-Fc-scFv(PR003366), hIgG1(dCH1, KiH, AAA) (bispecific antibody)
chain 1: RVHLAESGGGLVQAGGSLRLSCAASGSRLNDNAMAWFRQAPGKEREFVGSIFWTGGNTYYADAVKGRLTISRDNAKNALYLQMNSLKPEDTAVYYCAASRVVWYYCSGYGCSRAGDYVYWGQGTQVTVSSASEPKSSDKTHTCPPCPAPEAAGAPSVFLFPPKPKDTLMISRTPEVTCVVVDVSHEDPEVKFNWYVDGVEVHNAKTKPREEQYNSTYRVVSVLTVLHQDWLNGKEYKCKVSNKALPAPIEKTISKAKGQPREPQVYTLPPCREEMTKNQVSLWCLVKGFYPSDIAVEWESNGQPENNYKTTPPVLDSDGSFFLYSKLTVDKSRWQQGNVFSCSVMHEALHNHYTQKSLSLSPGK
chain 2: EIVMTQSPASLSVSPGERATLSCRASQSVSSNLAWYQQKPGQAPRLLIYGASTRATGIPARVSGGGSGTEFTLTISSLQSEDFAVYYCQQYKNWPFTFGPGTKLEIKGGGGSGGGGSGGGGSGGGGSQVQLVQSGAEVKKPGSSMRVSCKASEDTFSSYAISWVRQAPGQGLEWMGGTAPIFGTTNYAQKFQGRVTITADKSTSTAYMELSSLRSEDTAVYYCARGGPYFDYWGQGTLVTVSSASEPKSSDKTHTCPPCPAPEAAGAPSVFLFPPKPKDTLMISRTPEVTCVVVDVSHEDPEVKFNWYVDGVEVHNAKTKPREEQYNSTYRVVSVLTVLHQDWLNGKEYKCKVSNKALPAPIEKTISKAKGQPREPQVCTLPPSREEMTKNQVSLSCAVKGFYPSDIAVEWESNGQPENNYKTTPPVLDSDGSFFLVSKLTVDKSRWQQGNVFSCSVMHEALHNHYTQKSLSLSPGK
B2: PR003733, anti-B7H4xCD3 Fab(PR001848)-Fc-scFv(PR003366), hIgG1(KiH, LALA) (bispecific antibody)
heavy: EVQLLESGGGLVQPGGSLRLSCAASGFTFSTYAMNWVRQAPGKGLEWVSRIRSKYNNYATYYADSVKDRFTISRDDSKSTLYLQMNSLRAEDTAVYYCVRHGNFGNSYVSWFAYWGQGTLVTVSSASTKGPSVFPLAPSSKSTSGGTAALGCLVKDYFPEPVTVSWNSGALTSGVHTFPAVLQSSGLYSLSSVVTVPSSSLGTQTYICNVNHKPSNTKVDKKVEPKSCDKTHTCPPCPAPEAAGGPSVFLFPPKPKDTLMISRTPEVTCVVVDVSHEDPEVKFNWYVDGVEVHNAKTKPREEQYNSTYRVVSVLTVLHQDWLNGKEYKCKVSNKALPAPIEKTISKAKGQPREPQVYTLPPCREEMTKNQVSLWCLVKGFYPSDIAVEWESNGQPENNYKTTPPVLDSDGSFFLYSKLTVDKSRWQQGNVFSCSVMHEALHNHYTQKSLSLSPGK
light: QAVVTQEPSLTVSPGGTVTLTCRSSTGAVTTSNYANWVQQKPGQAPRGLIGGTNKRAPWTPARFSGSLLGDKAALTLLGAQPEDEAEYFCALWYSNLWVFGGGTKLTVLGQPKAAPSVTLFPPSSEELQANKATLVCLISDFYPGAVTVAWKADSSPVKAGVETTTPSKQSNNKYAASSYLSLTPEQWKSHRSYSCQVTHEGSTVEKTVAPTECS
chain: B1 chain 2 with A267G
B3: PR006003, anti-B7H4xCD3 VH(E2)-Fc-scFv(PR003366), hIgG1(dCH1, KiH, LALA) (bispecific antibody)
chain 1: not shown
chain 2: B1 chain 2 with A267G
B4: PR003899, anti-B7H4xCD3 Fab(PR003886)-Fc-scFv(PR003366), hIgG1(KIH, LALA) (bispecific antibody)
heavy: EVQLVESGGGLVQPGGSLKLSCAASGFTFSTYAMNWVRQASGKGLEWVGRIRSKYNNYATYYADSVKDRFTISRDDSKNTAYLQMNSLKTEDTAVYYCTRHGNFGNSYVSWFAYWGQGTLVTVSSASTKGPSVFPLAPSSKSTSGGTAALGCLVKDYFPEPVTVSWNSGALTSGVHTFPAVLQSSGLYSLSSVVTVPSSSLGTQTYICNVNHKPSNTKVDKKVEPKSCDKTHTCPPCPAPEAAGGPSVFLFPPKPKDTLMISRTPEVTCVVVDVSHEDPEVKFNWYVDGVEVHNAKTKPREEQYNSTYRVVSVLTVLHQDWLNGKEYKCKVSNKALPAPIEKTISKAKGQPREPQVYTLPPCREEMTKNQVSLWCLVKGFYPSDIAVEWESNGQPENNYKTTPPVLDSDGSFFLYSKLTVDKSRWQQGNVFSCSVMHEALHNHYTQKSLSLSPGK
light: B2 light
chain: B1 chain 2 with A267G
B5: PR010983, anti-B7H4xCD3 S136-Fc-scFv(PR003366), hIgG1(dCH1, KIH, AAA) (bispecific antibody)
chain 1: EVQLLESGGGLVQPGGSLRLSCAASGRTSGIPAMSWVRQAPGKEREFVAMAWSGGGTIYADSVKGRFTISRDNSKNTLYLQMNSLRAEDTAVYYCAAGRSTSNRADQYNYWGQGTQVTVSSASEPKSSDKTHTCPPCPAPEAAGAPSVFLFPPKPKDTLMISRTPEVTCVVVDVSHEDPEVKFNWYVDGVEVHNAKTKPREEQYNSTYRVVSVLTVLHQDWLNGKEYKCKVSNKALPAPIEKTISKAKGQPREPQVYTLPPCREEMTKNQVSLWCLVKGFYPSDIAVEWESNGQPENNYKTTPPVLDSDGSFFLYSKLTVDKSRWQQGNVFSCSVMHEALHNHYTQKSLSLSPGK
chain 2: B1 chain 2
B6: PR010984, anti-B7H4xCD3 S137-Fc-scFv(PR003366), hIgG1(dCH1, KIH, AAA) (bispecific antibody)
chain 1: B5 chain 1 with R104Y
chain 2: B1 chain 2
B7: PR010982, anti-B7H4xCD3 S135-Fc-scFv(PR003366), hIgG1(dCH1, KIH, AAA) (bispecific antibody)
chain 1: B5 chain 1 with E44G, R45L, F47W, Q116L
chain 2: B1 chain 2
B8: PR010985, anti-B7H4xCD3 S138-Fc-scFv(PR003366), hIgG1(dCH1, KIH, AAA) (bispecific antibody)
chain 1: B5 chain 1 with E44G, R45L, F47W, R104Y, Q116L
chain 2: B1 chain 2

target: T1, CD3 on human T cells (human PBMCs or isolated T cells used as effector cells) (human, UniProt P07766 23-207; P04234 22-171; P09693 23-182); test: cell-based or functional assay
T1 sequence (P07766 23-207, chain 1 of 3): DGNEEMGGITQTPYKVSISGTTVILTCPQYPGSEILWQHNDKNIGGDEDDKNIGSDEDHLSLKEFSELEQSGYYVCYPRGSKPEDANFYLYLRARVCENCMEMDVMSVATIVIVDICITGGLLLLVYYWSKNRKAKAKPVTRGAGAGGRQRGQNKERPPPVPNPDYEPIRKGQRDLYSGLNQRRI
T1 sequence (P04234 22-171, chain 2 of 3): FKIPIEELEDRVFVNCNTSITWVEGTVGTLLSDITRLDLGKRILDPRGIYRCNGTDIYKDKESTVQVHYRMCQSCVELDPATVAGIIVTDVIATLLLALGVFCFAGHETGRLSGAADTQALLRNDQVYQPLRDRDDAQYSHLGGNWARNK
T1 sequence (P09693 23-182, chain 3 of 3): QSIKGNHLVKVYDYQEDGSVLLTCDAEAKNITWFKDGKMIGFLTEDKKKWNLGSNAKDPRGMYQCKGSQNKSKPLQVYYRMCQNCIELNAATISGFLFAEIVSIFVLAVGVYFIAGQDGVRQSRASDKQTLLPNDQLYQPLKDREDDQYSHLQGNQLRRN

Binder | EC50 of T cell-mediated cytotoxicity to MDA-MB-468 (RTCA) [nM] | Max cytotoxicity (%) of T cell-mediated cytotoxicity to MDA-MB-468 (RTCA) [%]
B1 | 15.2 | 90.7
B2 | 0.0248 | 95.2
B3 | 0.0465 | 95.1
B4 | 0.112 | 96.3

target: T1, CD3 on human T cells (human PBMCs or …); test: cell-based or functional assay; remark: another data set of the same source

Binder | EC50 of T cell-mediated cytotoxicity to MDA-MB-468 (RTCA, human T cells, E:T 10:1) [nM]
B5 | 0.0602
B6 | 0.576
B7 | 0.247
B8 | 2.91
